According to patent publication US20260207767A1 (ANAVEON, published 2026):

Legend:
[1] = biological target: T1, recombinant hPD-1 (construct not stated) (human, UniProt Q15116 25-167, limits assumed); test: BLI, supernatants
T1 construct: also called huPD-1; Human PD1
Excerpt: In order to remove an N-glycosylation site present in the CDR-L1, mutations were inserted in the CDR-L1 of 21A08. The first asparagine ([…], N) in CDR-L1, was replaced by a serine (Ser, S), Glutamine (Gln, Q), or Alanine (Ala, A).

[2] = biological target: T2, cynoPD-1 His (AcroBiosystems PD1-C5223) (cynomolgus monkey, UniProt B0LAJ3 25-170); test: SPR, Ab captured, PD-1 analyte
T2 construct: also called cPD-1; cynomolgus PD-1 His-tagged
T2 sequence (B0LAJ3 entry or part of it limits assumed): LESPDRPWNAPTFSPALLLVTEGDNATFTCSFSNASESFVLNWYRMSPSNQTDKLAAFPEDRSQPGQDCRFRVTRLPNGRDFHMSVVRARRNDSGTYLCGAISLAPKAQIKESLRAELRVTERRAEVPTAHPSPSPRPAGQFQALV
Experimental: (§1) 10 mM glycine (pH 1.5) as regeneration buffer was injected to flow cells following every dissociation phase.

hPD-1 His-tagged = biological target: T3, hPD-1 His-tagged (human, UniProt Q15116 25-167); test: SPR, Ab captured, PD-1 analyte
T3 construct: also called recombinant hPD-1 (AcroBio)
T3 sequence (Q15116 25-167 limits assumed): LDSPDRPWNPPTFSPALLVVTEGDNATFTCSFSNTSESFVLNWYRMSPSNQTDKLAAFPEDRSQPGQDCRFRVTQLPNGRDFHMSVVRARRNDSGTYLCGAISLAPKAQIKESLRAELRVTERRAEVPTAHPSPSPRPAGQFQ
Experimental: as §1

[3] = biological target: T4, IL-2R CD122-CD132 on Jurkat-PD1+CD122+ cells (UniProt P14784 27-551; P31785 23-369); test: cell-based or functional assay
T4 sequence (looked up) 1: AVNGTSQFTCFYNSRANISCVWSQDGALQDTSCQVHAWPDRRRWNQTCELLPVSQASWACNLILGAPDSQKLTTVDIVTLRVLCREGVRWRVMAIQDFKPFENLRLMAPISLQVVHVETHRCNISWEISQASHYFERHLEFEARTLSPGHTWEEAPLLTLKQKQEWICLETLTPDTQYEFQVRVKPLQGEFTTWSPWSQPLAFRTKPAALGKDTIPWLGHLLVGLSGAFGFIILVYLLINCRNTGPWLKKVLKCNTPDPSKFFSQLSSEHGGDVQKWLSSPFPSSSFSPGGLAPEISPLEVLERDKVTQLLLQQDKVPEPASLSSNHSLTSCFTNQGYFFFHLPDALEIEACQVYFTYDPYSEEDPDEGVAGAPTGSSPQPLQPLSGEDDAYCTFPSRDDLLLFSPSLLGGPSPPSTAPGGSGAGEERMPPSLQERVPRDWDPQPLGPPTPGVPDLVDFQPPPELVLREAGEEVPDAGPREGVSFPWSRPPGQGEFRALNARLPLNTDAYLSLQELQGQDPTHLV
T4 sequence (looked up) 2: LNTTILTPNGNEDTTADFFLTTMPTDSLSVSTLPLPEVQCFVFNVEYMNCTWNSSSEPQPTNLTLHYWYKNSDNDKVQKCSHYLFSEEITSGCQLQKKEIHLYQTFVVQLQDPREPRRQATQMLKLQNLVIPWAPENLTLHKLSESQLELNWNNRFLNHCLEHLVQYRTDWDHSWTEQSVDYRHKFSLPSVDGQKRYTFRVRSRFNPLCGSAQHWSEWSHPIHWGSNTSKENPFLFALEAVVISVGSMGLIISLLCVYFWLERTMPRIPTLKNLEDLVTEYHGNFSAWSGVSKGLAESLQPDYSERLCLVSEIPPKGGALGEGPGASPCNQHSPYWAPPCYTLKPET

[4] = biological target: T4, IL-2R CD122-CD132 on Jurkat-PD1+CD122+ …; test: cell-based or functional assay; remark: listed apart in the source
[5] = biological target: human PD-1 expressed on cells (human, UniProt Q15116 25-288); test: cell-based or functional assay
Sequence of human PD-1 expressed on cells (Q15116 25-288): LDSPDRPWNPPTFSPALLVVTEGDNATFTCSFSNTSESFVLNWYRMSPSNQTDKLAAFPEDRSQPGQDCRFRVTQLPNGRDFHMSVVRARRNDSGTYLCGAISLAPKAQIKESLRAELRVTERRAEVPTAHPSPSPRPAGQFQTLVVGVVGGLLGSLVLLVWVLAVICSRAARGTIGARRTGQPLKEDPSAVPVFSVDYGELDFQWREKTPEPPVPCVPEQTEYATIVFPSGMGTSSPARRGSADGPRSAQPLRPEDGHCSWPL

T1 sequence (Q15116 25-167 limits assumed): as the sequence (Q15116 25-167 limits assumed) above

B1: 21A08Q (antibody, V domains shown)
VH: EVQLLESGGGLVQPGGSLRLSCAASGFTFSINAMTWVRQAPGKGLEWVSTISGSGFSTYYADSLKGRFTISRDNSKNTLYLQMNSLRAEDTAVYYCAKEVYGDYWGQGTLVTVSS
VL: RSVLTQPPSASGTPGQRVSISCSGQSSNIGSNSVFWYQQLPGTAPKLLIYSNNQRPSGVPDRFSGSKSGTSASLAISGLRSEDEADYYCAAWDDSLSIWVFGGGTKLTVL
notes: position not given
Kd [1]: 3.39 nM
koff [1]: 0.000267 s⁻¹

B2: 21A08A (antibody, V domains shown)
VH: EVQLLESGGGLVQPGGSLRLSCAASGFTFSINAMTWVRQAPGKGLEWVSTISGSGFSTYYADSLKGRFTISRDNSKNTLYLQMNSLRAEDTAVYYCAKEVYGDYWGQGTLVTVSS
VL: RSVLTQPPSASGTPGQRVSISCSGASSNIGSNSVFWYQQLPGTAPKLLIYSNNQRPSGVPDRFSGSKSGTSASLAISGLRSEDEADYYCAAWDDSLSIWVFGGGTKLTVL
notes: position not given
Kd [2]: 1.7 nM
koff [2]: 9.6e-05 s⁻¹
kon [2]: 56000 M⁻¹ s⁻¹
Kd (hPD-1 His-tagged): < 0.16 nM
koff (hPD-1 His-tagged): < 1e-05 s⁻¹
kon (hPD-1 His-tagged): 63000 M⁻¹ s⁻¹
Kd [1]: 1.81 nM
koff [1]: 0.000181 s⁻¹

B3: 21A08S (antibody, V domains shown)
VH: EVQLLESGGGLVQPGGSLRLSCAASGFTFSINAMTWVRQAPGKGLEWVSTISGSGFSTYYADSLKGRFTISRDNSKNTLYLQMNSLRAEDTAVYYCAKEVYGDYWGQGTLVTVSS
VL: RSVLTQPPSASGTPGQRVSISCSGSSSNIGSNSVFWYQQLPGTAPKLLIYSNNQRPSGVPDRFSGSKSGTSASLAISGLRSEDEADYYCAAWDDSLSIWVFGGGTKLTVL
notes: position not given; tested as supernatant
Kd [1]: 2.47 nM
koff [1]: 0.000184 s⁻¹

B4: XWY176 (bispecific antibody, human IgG1, kappa, lambda, L234A L235A)
heavy 1: EVQLLESGGGLVQPGGSLRLSCAASGFTFSINAMTWVRQAPGKGLEWVSTISGSGFSTYYADSLKGRFTISRDNSKNTLYLQMNSLRAEDTAVYYCAKEVYGDYWGQGTLVTVSSASTKGPSVFPLAPSSKSTSGGTAALGCLVKDYFPEPVTVSWNSGALTSGVHTFPAVLQSSGLYSLSSVVTVPSSSLGTQTYICNVNHKPSNTKVDKRVEPKSCDKTHTCPPCPAPEAAGGPSVFLFPPKPKDTLMISRTPEVTCVVVDVSHEDPEVKFNWYVDGVEVHNAKTKPREEQYNSTYRVVSVLTVLHQDWLNGKEYKCKVSNKALAAPIEKTISKAKGQPREPQVYTLPPSREEMTKNQVSLTCLVKGFYPSDIAVEWESNGQPENNYKTTPPVLDSDGSFFLTSKLTVDKSRWQQGNVFSCSVMHEALHNHYTQKSLSLSPGK
light 1: not shown
heavy 2: EVQLVQSGAEVKKPGESLKISCKGSGYAFTNYLIEWVRQMPGKGLEWMGVINPGSGGTNYNEKFKGQVTISADKSISTAYLQWSSLKASDTAMYYCARWRGEGYYAYFDVWGQGTTVTVSSASTKGPSVFPLAPSSKSTSGGTAALGCLVKDYFPEPVTVSWNSGALTSGVHTFPAVLQSSGLYSLSSVVTVPSSSLGTQTYICNVNHKPSNTKVDKRVEPKSCDKTHTCPPCPAPEAAGGPSVFLFPPKPKDTLMISRTPEVTCVVVDVSHEDPEVKFNWYVDGVEVHNAKTKPREEQYNSTYRVVSVLTVLHQDWLNGKEYKCKVSNKALAAPIEKTISKAKGQPREPQVYTLPPSREEMTKNQVSLYCLVKGFYPSDIAVEWESNGQPENNYKTTPPVLDSDGSFFLYSKLTVDKSRWQQGNVFSCSVMHEALHNHYTQKSLSLSPGK
light 2: not shown
EC50 value for pSTAT5 induction, Jurkat-PD-1+CD122+ cells [3]: 0.27 nM

B5: YPW986 (bispecific antibody, human IgG1, kappa, L234A L235A)
heavy 1: EVQLLESGGGLVQPGGSLRLSCAASGFTFSINAMTWVRQAPGKGLEWVSTISGSGFSTYYADSLKGRFTISRDNSKNTLYLQMNSLRAEDTAVYYCAKEVYGDYWGQGTLVTVSSASVAAPSVFIFPPSDEQLKSGTASVVCLLNNFYPREAKVQWKVDNALQSGNSQESVTEQDSKDSTYSLSSTLTLSKADYEKHKVYACEVTHQGLSSPVTKSFNRGECDKTHTCPPCPAPEAAGGPSVFLFPPKPKDTLMISRTPEVTCVVVDVSHEDPEVKFNWYVDGVEVHNAKTKPREEQYNSTYRVVSVLTVLHQDWLNGKEYKCKVSNKALAAPIEKTISKAKGQPREPQVYTLPPSREEMTKNQVSLTCLVKGFYPSDIAVEWESNGQPENNYKTTPPVLDSDGSFFLTSKLTVDKSRWQQGNVFSCSVMHEALHNHYTQKSLSLSPGK
light 1: RSVLTQPPSASGTPGQRVSISCSGASSNIGSQSVFWYQQLPGTAPKLLIYSNNQRPSGVPDRFSGSKSGTSASLAISGLRSEDEADYYCAAWDDSLSIWVFGGGTKLTVLSSASTKGPSVFPLAPSSKSTSGGTAALGCLVKDYFPEPVTVSWNSGALTSGVHTFPAVLQSSGLYSLSSVVTVPSSSLGTQTYICNVNHKPSNTKVDKRVEPKSC
heavy 2: EVQLVQSGAEVKKPGESLKISCKGSGYAFTNYLIEWVRQMPGKGLEWMGVINPGSGGTNYNEKFKGQVTISADKSISTAYLQWSSLKASDTAMYYCARWRGEGYYAYFDVWGQGTTVTVSSASTKGPSVFPLAPSSKSTSGGTAALGCLVKDYFPEPVTVSWNSGALTSGVHTFPAVLQSSGLYSLSSVVTVPSSSLGTQTYICNVNHKPSNTKVDKRVEPKSCDKTHTCPPCPAPEAAGGPSVFLFPPKPKDTLMISRTPEVTCVVVDVSHEDPEVKFNWYVDGVEVHNAKTKPREEQYNSTYRVVSVLTVLHQDWLNGKEYKCKVSNKALAAPIEKTISKAKGQPREPQVYTLPPSREEMTKNQVSLYCLVKGFYPSDIAVEWESNGQPENNYKTTPPVLDSDGSFFLYSKLTVDKSRWQQGNVFSCSVMHEALHNHYTQKSLSLSPGK
light 2: not shown
EC50 value for pSTAT5 induction, Jurkat-PD-1+CD122+ cells [3]: 43.9 nM

B6: NZA596 (bispecific antibody, human IgG1, kappa, lambda, L234A L235A)
heavy 1: EVQLLESGGGLVQPGGSLRLSCAASGFTFSINAMTWVRQAPGKGLEWVSTISGSGFSTYYADSLKGRFTISRDNSKNTLYLQMNSLRAEDTAVYYCAKEVYGDYWGQGTLVTVSSASTKGPSVFPLAPSSKSTSGGTAALGCLVKDYFPEPVTVSWNSGALTSGVHTFPAVLQSSGLYSLSSVVTVPSSSLGTQTYICNVNHKPSNTKVDKRVEPKSCDKTHTCPPCPAPEAAGGPSVFLFPPKPKDTLMISRTPEVTCVVVDVSHEDPEVKFNWYVDGVEVHNAKTKPREEQYNSTYRVVSVLTVLHQDWLNGKEYKCKVSNKALAAPIEKTISKAKGQPREPQVCTLPPSREEMTKNQVSLSCAVKGFYPSDIAVEWESNGQPENNYKTTPPVLDSDGSFFLVSKLTVDKSRWQQGNVFSCSVMHEALHNHYTQKSLSLSPGK
light 1: not shown
heavy 2: EVQLVQSGAEVKKPGESLKISCKGSGYAFTNYLIEWVRQMPGKGLEWMGVINPGSGGTNYNEKFKGQVTISADKSISTAYLQWSSLKASDTAMYYCARWRGEGYYAYFDVWGQGTTVTVSSASTKGPSVFPLAPSSKSTSGGTAALGCLVKDYFPEPVTVSWNSGALTSGVHTFPAVLQSSGLYSLSSVVTVPSSSLGTQTYICNVNHKPSNTKVDKRVEPKSCDKTHTCPPCPAPEAAGGPSVFLFPPKPKDTLMISRTPEVTCVVVDVSHEDPEVKFNWYVDGVEVHNAKTKPREEQYNSTYRVVSVLTVLHQDWLNGKEYKCKVSNKALAAPIEKTISKAKGQPREPQVYTLPPCREEMTKNQVSLWCLVKGFYPSDIAVEWESNGQPENNYKTTPPVLDSDGSFFLYSKLTVDKSRWQQGNVFSCSVMHEALHNHYTQKSLSLSPGK
light 2: not shown
EC50 (read off the curve), % pSTAT5+ of CFSE+ cells pre-blocked with Nivolumab [panel CFSE+ cells] [4]: ~0.9 nM
EC50 (read off the curve), % pSTAT5+ of CFSE+ cells pre-blocked with Pembrolizumab [panel CFSE+ cells] [4]: ~0.9 nM
EC50 (read off the curve), % pSTAT5+ of CFSE+ cells; No blocking [panel CFSE+ cells] [4]: ~0.6 nM
EC50 (read off the curve), % pSTAT5+ of CTV+ cells; No blocking [panel CTV+ cells] [4]: ~0.5 nM
EC50 (read off the curve), % pSTAT5+ of CTV+ cells; mixed with CFSE+ cells pre-blocked with Nivolumab [panel CTV+ cells] [4]: ~0.6 nM
EC50 (read off the curve), % pSTAT5+ of CTV+ cells; mixed with CFSE+ cells pre-blocked with Parental mAb [panel CTV+ cells] [4]: ~0.6 nM
EC50 (read off the curve), % pSTAT5+ of CTV+ cells; mixed with CFSE+ cells pre-blocked with Pembrolizumab [panel CTV+ cells] [4]: ~0.6 nM
EC50 of NZA596, % pSTAT5+ Jurkat PD-1+CD122+ cells, pre-incubation with Medium [5]: 0.85 nM
EC50 of NZA596, pre-incubation with 21A08Ap1 [5]: 15.6 nM
EC50 of NZA596, pre-incubation with Cemiplimab [5]: 1.67 nM
EC50 of NZA596, pre-incubation with Cetrelimab [5]: 0.76 nM
EC50 of NZA596, pre-incubation with Dostarlimab (m102) [5]: 0.96 nM
EC50 of NZA596, pre-incubation with Ezabenlimab [5]: 1.71 nM
EC50 of NZA596, pre-incubation with Nivolumab [5]: 1.1 nM
EC50 of NZA596, pre-incubation with Pembrolizumab [5]: 1.02 nM
EC50 of NZA596, pre-incubation with Tislelizumab [5]: 1.47 nM
EC50 of NZA596, pre-incubation with Toripalimab [5]: 0.65 nM
EC50 of NZA596, pre-incubation with Zeluvalimab [5]: 0.88 nM
fold reduction in NZA596 Potency, pre-incubation with 21A08Ap1 [5]: 18.2 fold
fold reduction in NZA596 Potency, pre-incubation with Cemiplimab [5]: 1.95 fold
fold reduction in NZA596 Potency, pre-incubation with Cetrelimab [5]: 0.89 fold
fold reduction in NZA596 Potency, pre-incubation with Dostarlimab (m102) [5]: 1.12 fold
fold reduction in NZA596 Potency, pre-incubation with Ezabenlimab [5]: 2 fold
fold reduction in NZA596 Potency, pre-incubation with Nivolumab [5]: 1.28 fold
fold reduction in NZA596 Potency, pre-incubation with Pembrolizumab [5]: 1.2 fold
fold reduction in NZA596 Potency, pre-incubation with Tislelizumab [5]: 1.72 fold
fold reduction in NZA596 Potency, pre-incubation with Toripalimab [5]: 0.77 fold
fold reduction in NZA596 Potency, pre-incubation with Zeluvalimab [5]: 1.03 fold
